We go through 17 molecules from patent US20260125457A1 (Janssen / Centocor, published 2026).

Changes are numbered by the printed parent chain.

Assay [1] concerns the target T1, HIS-CALRdel52 (produced in E. coli).
T1 construct: also called recombinant CALRdel52 protein; CALRdel53 target protein
T1 chain: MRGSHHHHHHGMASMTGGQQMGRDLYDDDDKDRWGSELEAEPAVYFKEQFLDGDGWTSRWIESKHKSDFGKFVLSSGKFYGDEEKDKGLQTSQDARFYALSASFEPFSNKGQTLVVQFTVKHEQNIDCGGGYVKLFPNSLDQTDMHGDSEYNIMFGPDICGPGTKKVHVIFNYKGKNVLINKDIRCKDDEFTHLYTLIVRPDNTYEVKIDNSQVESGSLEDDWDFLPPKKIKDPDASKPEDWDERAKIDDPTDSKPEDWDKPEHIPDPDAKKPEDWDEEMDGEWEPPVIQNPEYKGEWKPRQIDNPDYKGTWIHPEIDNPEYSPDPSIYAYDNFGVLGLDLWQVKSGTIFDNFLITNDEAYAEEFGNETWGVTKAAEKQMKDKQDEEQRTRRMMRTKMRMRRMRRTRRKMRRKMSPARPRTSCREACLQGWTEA
In words: QC monoclonal phage ELISA. An excerpt: Next, recombinant CALRdel52 protein (SEQ ID NO: 5) and the 22 amino acid CALRmut peptide (SEQ ID NO: 1) were used for selecting specific binders from the immune rabbit/human Fab library prepared above. By DNA sequencing, 15 unique Fabs were identified and specific binding to the CALRmut target peptide was confirmed by phage ELISA and by QC ELISA after soluble expression of Fab-AP (Fab-conjugated to Alkaline Phosphatase).
Background: In an ELISA, binding on a coated surface is turned into a signal by an enzyme label.

Assay [2] addresses T2, 22 amino acid CALRmut-specific peptide (acetylation of the terminal amino-group; C-terminal -OH group).
T2 construct: also called 22aa CALRmut peptide; CALRmut target peptide
T2 peptide: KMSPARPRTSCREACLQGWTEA
In words: phage ELISA; QC ELISA of soluble Fab-AP.

Assay [3] addresses CALRdel52 (mutant calreticulin, 52 base pair deletion, Type 1) expressed with MPL on engineered cancer cells (UniProt P27797). In words: cell-based or functional assay.
The target in assay [4] is CALRins5 (mutant calreticulin, 5 base pair insertion, Type 2) expressed with MPL on engineered cancer cells (UniProt P27797). In words: cell-based or functional assay.
CALRins5 (mutant calreticulin, 5 base pair insertion, Type 2) expressed with MPL on engineered cancer cells, sequence (P27797 other isoform, or with tags, fused parts or gaps mutant limits assumed): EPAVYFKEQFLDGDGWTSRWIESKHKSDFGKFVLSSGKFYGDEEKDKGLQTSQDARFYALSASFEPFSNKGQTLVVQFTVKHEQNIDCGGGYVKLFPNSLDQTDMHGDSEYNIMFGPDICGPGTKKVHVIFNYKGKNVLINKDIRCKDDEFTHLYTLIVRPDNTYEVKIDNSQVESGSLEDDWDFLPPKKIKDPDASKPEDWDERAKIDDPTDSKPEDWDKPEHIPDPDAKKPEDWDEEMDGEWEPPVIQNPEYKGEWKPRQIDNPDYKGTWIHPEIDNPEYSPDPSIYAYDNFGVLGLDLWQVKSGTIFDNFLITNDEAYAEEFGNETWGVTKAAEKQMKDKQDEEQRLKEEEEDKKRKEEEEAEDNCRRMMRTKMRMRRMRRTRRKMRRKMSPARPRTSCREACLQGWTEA

B1: Clone 20 (Fab, V domains shown)
VH: QSLEESGGRLVTPGTPLTLTCTVSGIDLSNNAISWVRQAPGKGLEYIGVIGNTGDTYYASWAKGRFTISKTSSTTVDLKMTSLTTEDTATYFCVRGPPSYSNSVKNIWGPGTLVTISS
VL: DPMLTQTPSSVSAAVGGTVTIGCQSSQSVYDKNWLSWYQQKPGQPPSRLIYDASKLESGVPSRFSGSGSGTQFTLTISGVQCDDAATYYCAGGFTGNVYAFGGGTKLEIK
notes: Rabbit/human chimeric Fab (human CH1, CK) on phage; also soluble Fab-AP
Turning to B1, in assay [1], the “phage ELISA signal (Coating: CALR)” value worked out at 2.69. The binding result in assay [2] is reported as “binds”.

B2: Clone 7 (Fab, V domains shown)
VH: B1 VH with S2Q, T12A, T18R, I33V, D55T, S60N, E86D, K105R, I116V
VL: B1 VL with K32N, S47N, E57A, Q81K, F94Y, A100S, K106M, L107V
notes: as for B1
For the molecule B2, in assay [2], the binding result is reported as “binds”.

B3: Clone 10 (Fab, V domains shown)
VH: B1 VH with L3V
VL: B1 VL with A85V, K106E, L107V, E108V, I109V
notes: as for B1
For the molecule B3, the “phage ELISA signal (Coating: CALR)” value in assay [1] amounted to 2.18. The binding result in assay [2] is reported as “binds”.

B4: Clone 2 (Fab, V domains shown)
VH: B1 VH with L3V, D55T, T85A, E86S, I116V
VL: B1 VL with S78G
notes: as for B1
As for B4, the “phage ELISA signal (Coating: CALR)” value in assay [1] is 2.87. Moreover, the binding result in assay [2] was “binds”.

B5: CALRB81 (MP1018 Fab x CD3W245-LH-scFv, medium affinity) (bispecific antibody, part only; not given: anti-CD3 scFv arm, constant regions, V domains shown, not shown: another chain or arm of the molecule; a dimerising Fc or GST; small tags and cut ends)
VL: DVVMTQTPSSVSAAVGGTVTINCQASQSLYNNKNLAWYQQKPGQPPKLLIYYASALASGVSSRFKGSGSGTQFTLTISGVQSDDAATYYCQGEFNCNSADCNSFGGGTEVVVK
VH: QSVEESGGRLVTPGTPLTITCTVSGFSLSSYAMSWVRQAPGKGLEWIGVIDSGGTTYYATWAKSRFTISKTTKVALKITSPTTEDTATYFCARESYAGYDGYGHPIPYGMDPWGPGTLVTVSS
For the molecule B5, in assay [3], the Cytotoxicity EC50, K562 MPL CALRdel52 cells turned out to be 0.0457 µg/mL and the Cytotoxicity EC50, OCI-M2 MPL CALRdel52 cells amounted to 0.0196 µg/mL. In assay [4], this molecule gave a Cytotoxicity EC50, K562 MPL CALRins5 cells of 0.0509 µg/mL and a Cytotoxicity EC50, OCI-M2 MPL CALRins5 cells of 0.0171 µg/mL.

B6: Clone 18 (Fab, V domains shown)
VH: QSVEESGGRLVTPGTPLTITCTVSGFSLSSYAMSWVRQAPGKGLEWIGVIDSGGTTYYATWAKSRFTISKTQTKVALKITSPTTEDTATYFCARESYAGYDGYGHPIPYGMDPWGPGTLVTVSS
VL: B5 VL with S82C
notes: as for B1
For B6, the “phage ELISA signal (Coating: CALR)” value in assay [1] amounted to 1.91. For the same molecule, the binding result in assay [2] was “binds”.

B7: CALRB115 (MP1004 Fab x CD3W245-HL-scFv, high affinity) (bispecific antibody, part only; not given: anti-CD3 scFv arm, constant regions, V domains shown, not shown: another chain or arm of the molecule; a dimerising Fc or GST; small tags and cut ends)
VH: QEQLEESGGRLVTPGTPLTLTCKVSGIDLSNNAISWVRQAPGKGLEYIGVIGNTGDTYYASWAKGRFTISKTSSTTVDLKMTSLTTEDTATYFCVRGPPSYSNSVKNIWGPGTLVTISS
VL: DPMLTQTPSSVSAAVGGTVTINCQSSQSVYNNNWLSWLQQKPGQPPNRLIYDASKLESGVPSRFSGSGSGTQFTLTISGVQSDDAATYYCAGGFTGNVYTFGGGTEVVVK
In assay [3], B7 displayed a Cytotoxicity EC50, K562 MPL CALRdel52 cells of 0.0348 µg/mL and a Cytotoxicity EC50, OCI-M2 MPL CALRdel52 cells of 0.0508 µg/mL. Besides, in assay [4], the Cytotoxicity EC50, K562 MPL CALRins5 cells turned out to be 0.0541 µg/mL and the Cytotoxicity EC50, OCI-M2 MPL CALRins5 cells amounted to 0.0431 µg/mL.

B8: Clone 15 (Fab, V domains shown)
VH: B1 VH with S2Q, D55T, T85A, E86S
VL: B7 VL with P2V, M3V, L4M, S82C
notes: as for B1
Turning to B8, the binding result in assay [2] was “binds”.

B9: Clone 22 (Fab, V domains shown)
VH: QQLEESGGRLVTPGTPLTLTCTVSGIDLSNNAMSWVRQAPGKGLEYIGVIGNTGTTYYASWAKGRFTISKTSSTTVDLKMTSLTTEDTATYFCVRGPPSYSNSVKNIWGPGTLVTIS
VL: B7 VL with M3V, S82C
notes: as for B1
Consider B9, for which the binding result in assay [2] is listed as “binds”.

B10: Clone 11 (Fab, V domains shown)
VH: B7 VH with E5K, T13A, T19R, K23T, I34V, D56T, S61N, E87D, I117V
VL: B7 VL with S10P, S25A, S36T, L38Y, E57A, S69F, S82C, G92A, F94W, T100S
notes: as for B1
For the molecule B10, the binding result in assay [2] is recorded as “binds”.

B11: Clone 17 (Fab, V domains shown)
VH: B7 VH with K23T, I34M, D56T, S61N, T75A, E87D, I117V
VL: B7 VL with P2V, N31D, N32K, N47S, S82C, E106K
notes: as for B1
With B11, the “phage ELISA signal (Coating: CALR)” value in assay [1] came to 2.23. For the same molecule, the binding result in assay [2] is reported as “binds”.

B12: Clone 5 (Fab, V domains shown)
VH: B7 VH with E5K, T13A, T19R, K23T, I34V, D56T, S73T, E87D, I117V
VL: B1 VL with M3V, A100G, K106E, L107V, E108V, I109V
notes: Rabbit/human chimeric Fab on phage; also Fab-AP
For the molecule B12, the binding result in assay [2] is given as “binds”.

B13: Clone 4 (Fab, V domains shown)
VH: B7 VH
VL: B7 VL with S82R
notes: as for B1
Consider B13, for which the “phage ELISA signal (Coating: CALR)” value in assay [1] turned out to be 2.54. In assay [2], the binding result is given as “binds”.

B14: Clone 21 (Fab, V domains shown)
VH: B7 VH with E5K, T13A, T19R, K23T, I34V, D56T, S61N, E87D
VL: B1 VL with P2V, M3V, L4M, K106M, L107V
notes: as for B1
For the molecule B14, in assay [2], the binding result is “binds”.

B15: Clone 3 (Fab, V domains shown)
VH: B7 VH with E5K, T13A, T19R, K23R, I34V, D56S, S61N, T86A, E87D, I117V
VL: B1 VL with K106E, L107V, E108V, I109V
notes: as for B1
For the molecule B15, the binding result in assay [2] is given as “binds”.

B16: Clone 16 (Fab, V domains shown)
VH: QEQLKESGGRLVTPGTPLTLTCTASGFSLSNYYMSWVRQAPGKGLEWIGGISSRAGTWYASWAKGRFTISGTSTTMDLKITSPTTEDTATYFCARGLKIWGPGTLVTVSS
VL: DPVLTQTESPVSAAVGGTVTINCQASQSVYDDNNLAWYQQKPGQPPKRLIYPASTLASGVSSRFSGSGSGSQFTLTISDVQCDDAATYYCQGEFSCTSADCVAFGGGTEVVVK
notes: as for B1
As to B16, the “phage ELISA signal (Coating: CALR)” value in assay [1] is 2.94. The binding result in assay [2] is given as “binds”.

B17: Clone 1 (Fab, V domains shown)
VH: QEQLKESGGRLVTPGTPLTLTCAVSGFSLDIYGMSWVRQAPGKGLEWIGIIYIEGITYYANWAKGRFTISKTSSTTLELKMTSLTTEDTAMYFCVAGVGRIWGPGTLVTVSS
VL: YVMMTQTPSSVSAAVGGTVTINCQASQSLYNNNNLAWFQQKPGQPPKRLIYPASTLASGVSSRFKGSGSGTQFTLTISDVQRDDAATYFCLGEFSCSSADCYAFGGGTEVVVK
notes: as for B1
Turning to B17, the “phage ELISA signal (Coating: CALR)” value in assay [1] was 2.92. In addition, the binding result in assay [2] is “binds”.
